Measurements as given in patent publication US20100310542A1, “Pharmaceutical Compositions for treating wouds and related methods” (HEALOR LTD., priority 2007, published 2010).

Test system: keratin 1
Test: keratin 1 expression by Western blot in keratinocytes
Type: cell-based, mice
Details: visfatin 0.0001 μg/ml or L-alpha 100 ng/ml, 24 hours after calcium-induced differentiation
Description: Medium A and B are both EMEM eagle's minimal essential medium from Biological Industries (Israel) containing 8% CHELEX™ treated fetal bovine serum. CHELEX™ is a strong chelator which binds free Ca^2+ and Mg^2+ ions to prevent these ions from being bioavailable to the cultured cells.
Primary skin keratinocytes isolated from the tails of adult mice (7-10 months up to 2 years) were maintained in medium A (MEM) as described above. After 5 days in (medium A), the growth medium in half of the cultured plates was replaced with medium B (as described above)
Next visfatin or L-alpha were each individually added to cells cultured in medium A (FIG. 19A) and cells cultured in medium B (FIG. 19B) as indicated in FIG. 19. The final concentration in the culture medium of visfatin was 0.0001 μg/ml visfatin. The final concentration in the culture medium of L-alpha was 100 ng/ml.
Cell differentiation was induced by elevating calcium from 0.05 mM to 0.12 mM as described above. Twenty-four (24) hours after differentiation cells were harvested and Western Blot analysis was performed. […] Keratin 1 expression was then quantified using standard densitometric methods […]
Cell differentiation was then induced by elevating calcium levels in the culture medium from 0.05 mM to 0.12 mM. […] Expression was assessed using standard Western blotting and densitometry techniques.

B1: visfatin: murine visfatin (ALEXIS), adipocytokine that functions as an insulin analog (protein, UniProt Q99KQ4 1-491, looked up)
Nicotinamide …: MNAAAEAEFNILLATDSYKVTHYKQYPPNTSKVYSYFECREKKTENSKVRKVKYEETVFYGLQYILNKYLKGKVVTKEKIQEAKEVYREHFQDDVFNERGWNYILEKYDGHLPIEVKAVPEGSVIPRGNVLFTVENTDPECYWLTNWIETILVQSWYPITVATNSREQKKILAKYLLETSGNLDGLEYKLHDFGYRGVSSQETAGIGASAHLVNFKGTDTVAGIALIKKYYGTKDPVPGYSVPAAEHSTITAWGKDHEKDAFEHIVTQFSSVPVSVVSDSYDIYNACEKIWGEDLRHLIVSRSTEAPLIIRPDSGNPLDTVLKVLDILGKKFPVTENSKGYKLLPPYLRVIQGDGVDINTLQEIVEGMKQKKWSIENVSFGSGGALLQKLTRDLLNCSFKCSYVVTNGLGVNVFKDPVADPNKRSKKGRLSLHRTPAGNFVTLEEGKGDLEEYGHDLLHTVFKNGKVTKSYSFDEVRKNAQLNIEQDVAPH
- expression of keratin 1 (medium A (no KCl)): decreased relative to the control sample
- expression of keratin 1 (medium B (KCl 0.4 mg/ml)): not significantly altered
